Assay results taken from patent US20250066460A1.

Target: complement C1s (UniProt P09871)
Test: cell-based or functional assay

Sequence of UniProt P09871 (P09871 16-688 limits assumed): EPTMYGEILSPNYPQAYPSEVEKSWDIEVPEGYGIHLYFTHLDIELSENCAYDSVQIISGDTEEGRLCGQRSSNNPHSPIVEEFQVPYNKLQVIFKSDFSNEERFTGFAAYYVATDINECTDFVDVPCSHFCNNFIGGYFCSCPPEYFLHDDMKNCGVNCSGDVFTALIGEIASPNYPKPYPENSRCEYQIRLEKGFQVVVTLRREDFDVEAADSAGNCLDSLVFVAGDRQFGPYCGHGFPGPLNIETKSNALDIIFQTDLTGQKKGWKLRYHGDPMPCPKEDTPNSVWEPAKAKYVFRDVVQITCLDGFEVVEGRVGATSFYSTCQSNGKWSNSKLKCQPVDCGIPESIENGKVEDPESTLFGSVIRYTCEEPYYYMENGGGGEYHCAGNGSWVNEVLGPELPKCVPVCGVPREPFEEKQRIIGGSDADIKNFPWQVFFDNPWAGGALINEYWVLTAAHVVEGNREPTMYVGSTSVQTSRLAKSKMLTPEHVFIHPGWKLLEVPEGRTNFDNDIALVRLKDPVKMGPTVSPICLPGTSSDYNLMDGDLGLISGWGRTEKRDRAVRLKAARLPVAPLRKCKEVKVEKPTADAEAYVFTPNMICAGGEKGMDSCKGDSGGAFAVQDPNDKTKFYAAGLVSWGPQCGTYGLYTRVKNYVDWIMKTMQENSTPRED

TNT009 (antibody) gave a concentration blocking C3 fixation on sNF02.2 Schwann cells opsonized with MMN-patient serum (flow cytometry) of 53 µg/mL and a lowest concentration blocking C3 deposition on fixed iPSC-derived motor neurons (titration 3-200 µg/mL) of 12 µg/mL.
